Results reported in the supplement of paper PMC9170038.

Tested on: K4 kissing-loop RNA reporter
Test: apparent KD of K4 kissing-loop reporter; higher = weaker reporter binding
Conditions: Eterna round: R107
Experimental: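 RNA-MaP round R107: designed RNA switches with theophylline, tryptophan, arginine or FMN aptamers are transcribed on-chip within common flanks. They are titrated with a labelled K4 kissing-loop RNA reporter in RNA-MaP buffer (100 mM Tris pH 7.5, 80 mM KCl, 4 mM MgCl2), without ligand or with the indicated ligand. Median apparent KD per design.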

[1] = input ligand: theophylline 20 uM
[2] = input ligand: tryptophan 2.4 mM
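Note: bound reporter read as fluorescence of individual clusters on recovered sequencing chips by microscopy, with normalized cluster intensities fitted with a binding model.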

Sequence	apparent KD of K4 kissing-loop reporter (input ligand: FMN 200 uM) [nM]	apparent KD of K4 kissing-loop reporter (input ligand: arginine 13.2 mM) [nM]	apparent KD of K4 kissing-loop reporter (input ligand: none) [nM]	apparent KD of K4 kissing-loop reporter [1] [nM]	apparent KD of K4 kissing-loop reporter [2] [nM]
CAUACGCAUGGAGGAUAUGAGAUUUUUCAUAUUAUUUUUUAUUCUCAGUGAUGUUGGGAUUUAUAAUCAGAAGGCCAUGUGUAUG [Ex FMN B 11]	88.4	79.2	84.9	94.7	88.9
GCCGUACGCAUGGAUACCAGCAAUAUGCUACGUUGUAGUAGUAUAACCAGUGAUGUUGGAUGCCCUUGGCAGCCAUGCGUACGGC	736	673	897	349	855
ACGUGCACCAGUGAUGUUGGAAAAUAUGAAGGAGCGGGUGAAAGCCCAGGUAGGUCGCAUAAUAGCACGAGCCACGAAAGUGGCA	131	175	184	154	117
AUUUAAUUAACUGAUACCAGACUUUAUGUAUUUAUUAAAACUAGUGAUGUUAGUUUAUCUGUCCCUUGGCAGCAGUUUCUACUUA [JR_Nu_ExcTheophyB_Sub021]	93.5	113	105	105	83.4
CAUUAAACUCAAACUAUUGGGUUUACGUUCCGAGGACCGGUACGGCCGCCACUCGGUCGAUGCUAUACCAUACGAGUGAUGUUCG [theeternabot_sameState_KL_Trp_A_1]	465	452	502	404	352
AAUUUAUUAACUGAUACCAGACUUUAUUAUUUGUAAAUUACUAGUGAUGUUAGUGUUUCUGUCCCUUGGCAGCAGUAUUUAUUAA [JR_SSTheophyB_Sub024]	78.8	142	90.3	134	70.5
UUGAGCCGGACGGAAGUCCGGCUCUGCGAGCGAGGACCGGUACGGCCGCCACUCGGUGCAGUGAUGUUGCAUGGCCGCAAGGCCG [#2 Exclusion - Tryptophan A Attempt #4 (HarryS)]	270	232	301	208	324
AAUGUACAGGGAAGGAGCGUAGUCCAGUGAUGUUGGAAUUAAAUACCAGUGAUGUUGGUUAUACAGGUAGGUCGCCCUAAAGUGC [KL-XARG-B20]	86.3	72.3	81.9	89.5	73.2
CGCGUACAGUGUUCUACGGCCGAGAGUGAUACCAGCCGUAUUUGUGGCCCUUGGCAGCGCAGAUGCAGUGAUGUUGCAUACUUGG [Same State Theophylline A GF 21]	98.6	139	135	149	85.4
UGGAGUUGACGAAAAGUCAACUCCUGGGAAGGAGCGGACGAAAGUCCAGGUAGGUCGCUCACUACCAGUGAUGUUGGUACUUAAA	229	350	293	299	206
UCGCGUCUGUGAGGAUAUCAGAACAGAGUGAUGUUCUGUCAACGCCCAGUGAUGUUGGAUGCGAUCUGAGAAGGCACUGGGCGCA [Same State FMN B GF 9]	1060	865	1320	1700	1160
ACACUUACACAUGAUACCAGAAUUCUACCGUAAAUAGUAAGUGAUGUUUGCUAACGGCUUUUCCCUUGGCAGCAUGAUCGGUAUU [theeternabot_sameState_KL_Theo_B_43]	201	121	178	242	149
GGCACGGUAACGCAACCGCCGUGCGCUUGGGAGGAUAUGUUUCGUGACAGAAGGCCCAGUGAUGUUGGGUCUGUUCAAAAGGACU [Ceenerus]	355	124	105	122	88.7
UGGACAUGACUCGAUAAGAGUCAAUGGGAUACCAGUGACGAAAGUCACCCUUGGCAGCUCAACUGCCAGUGAUGUUGGUAGUCCA [Astros-Elo-mod#2]	231	129	224	134	166
UUAAUUAAGACGGCCGCCACUGAAUUAGAGUGAUGUUCUAAAAUUACUAAAUUAAAUUUAUUCAACAGGACCGGGUCAAUUAUUA [JR_SSTryptoB_Sub009]	516	435	560	527	524
GUAUCGCUAGGAGGAUAUUUCAAUUCGUCAAUAAAUGGUGAUACGGAGUGAUGUUCCGAUUUACGGAAAGAAGGCCUAGUGAUAC [FMN B 7]	173	265	298	287	285
AAUAAAAUCACGGCCGCCACUGAUUUCCGUAUUAGGAGUGAUGUUCCUAUGACUAUAUAAUUUAACAGGACCGGGUGAAUAUUUA [#21 K4 Tryptophan B Exclusion]	111	109	110	107	97.8
CCGGCCCAGCCGGAUACCAGUGCGCCGCAGGGAACGGCGGGCCCAGAGUGAUGUUCGGGACACCCUUGGCAGCCGCCUGGGUCCU [#2 Same State - Theophylline B Attempt #29 (HarryS)]	850	662	718	767	864
AAGCAUUCUUCGGAAUGCAGACCCGCUGAGGAGGAUAUGACGAAAGUCAGAAGGUUUCAGUGAUGUUGAGGCCUCCUCAAUGGUC [whbob_Ex_FMNA__2th182]	305	256	293	285	291
AGAUUCGACACGGCCGCCACUCGUGGUGGAUUACCUAGUGUCGAAGUUGAGUGAUGUUCAAGUACGAGGACCGGGUGUUGAGUCU [KL-XTryp-B8 #analogue]	420	310	370	403	500
CUCCUUGGCUAAGGAUAUCGUAGUGAUGUUAUGGUCUUUGCUAAGACUUCUGAUAUUGAAUUCCGACGAGAAGGUAGAAGGACGG [theeternabot_exclusion_KL_FMN_B_18]	817	690	835	745	626
UGAUAGGACAGAAGGAGCGGUAGUGAUGUUACCAAAAGGUUAAGGUGUCAAAAGACACCCUACCAGGUAGGUCGCUGUCCUAUCU	152	164	161	126	136

Sequence	apparent KD of K4 kissing-loop reporter (input ligand: FMN 200 uM) [nM]	apparent KD of K4 kissing-loop reporter (input ligand: arginine 13.2 mM) [nM]	apparent KD of K4 kissing-loop reporter (input ligand: none) [nM]	apparent KD of K4 kissing-loop reporter [1] [nM]	apparent KD of K4 kissing-loop reporter [2] [nM]
UGUCAUUGGUCGGCCGCCACUUCAUGUAGAGUGAUGUUUUGUAGGACGGAUCGAAAGAUCUGUCGGAGGACCGGGACCGAUGACU [FiskerMod 16 - Jieux - Same State - Tryptophan B]	121	119	134	266	1690
GGAGUUACCUGGGAUACCAGUCGGAGACCCAGAGCUCGGAGUGAUGUUCUGGGAUGUUUCGGCCCUUGGCAGCUCUGGGUCUCCC [#2 Exclusion - Theophylline B Attempt #8 (HarryS)]	909	615	723	936	675
AUAGGAUUGCGAGGAUAUCCUUCCCACGUCGAAGUACCGUGCUUGAUGGAGUGAUGUUCGAUCAGAGGAGAAGGUGCGGUUUUGU [Same State FMN B GF24]	292	593	942	732	944
GCGCGUCAUGUCAGCGGUGACUAUGUCGAUACCAGCAGGGAAACCUGCCCUUGGCAGCGACGCGCUGGAGUGAUGUUCCGACGGC [#2 Exclusion - Theophylline A Attempt #8 (HarryS)]	165	153	154	173	145
AAGUCAUAGGCAGGAUAUGCUUAGUAUUAAGGCCAUAUAUACGUAUAGAGUGAUGUUUUGUACCAGGCAGAAGGGCUACAUCAGU [FMN B Excl V6 (+A)]	448	483	603	634	536
UGUACCGAGUCAGGAUAUCAUAAUAAAUCCAGUGAUGUUGGAAUAACCAGUACAAAGUACUGGCCUUGAGAAGGGACUUGGUACU [FmnBS 3 #SwitchBubble #StaticStem]	167	146	163	147	147
CAUUCACGGCGAGUCGAAGUGAUGUUUCGGCGAGGACCGGUACGGCCGCCACUCGGAUAAAUAUAGCUUAUCACAUACACUUUCG [theeternabot_exclusion_KL_Trp_A_27]	159	128	140	186	132
CCUUUCUGUUACGAUACCAGUCUAAUAUAUUUGAUCAAUACCCUCGCCGAGUGAUGUUCGGACCCUUGGCAGCGUCUGGGACAGG [aazwmullin]	482	438	493	468	451
AAUUCAGUGAUGUUGGAAGGCAGGCGGGAUACCAGCGGAGAAUAACGCCCUUGGCAGCCCAAAUAUCCCAAAUAGAUAAUAGUUC [Same State - Theophylline A (Freestyle 2)]	474	353	481	475	450
UAGCGCAACCUGCUUACGUAUGAGCCGGAAGGAGCGGCAGAAUUGCCAGGUAGGUCGCCGGCCCAGUGAUGUUGGGAUGGUGUGG [Usritiis]	265	226	252	223	228
GGUGCUGUCUGUGCCGCCCUCCUCGUCCCUCGAGGACCGGUACGGCCGCCACUCGAGUGAUGUUCGGGUAGCCAUCCCUGCCAGC [BDazzled - #20 Exc. Tryptophan A]	527	328	431	341	322
GAUUUAGAGGCGGCCGCCACUAGUGAUGUUAGUGAUGUUUGAUACUGAAUAUAUCUGCGUGUAGAUAGGACCGGGCCAGAUGGAG [eyerullin]	210	171	186	184	180
GACUCUCUCGUCAGGAAGACGCACUCAGCCAAGGAUAUUAUGUUUUUAAGAAGGUGGACUUAUGCCAGUGAUGUUGGCAGAUACG [theeternabot_sameState_KL_FMN_A_29]	50.6	86.1	67.6	99.9	57.1
CACGAUGAAUUCUCUAGGAGUGAUGUUUUUCGAGGACCGGUACGGCCGCCACUCGGACGACGAGCGUGGUAGCGGCCUGAAGACU [,omullin]	743	225	468	680	380
UCUCAUCUCAGAAGGAGCGUGAGAGAAUAUUAGAAAUCGUCGAGUGAUGUUCGACGUCUCUCACAGGUAGGUCGCUGAGACGUCA [Arg B SS t9]	111	107	97.4	121	111
GAUUUAGAGGCGGCCGCCACUAGUGAUGUUAGUGAUGUUUGAUACUGAAUAUAUCUGCGUUUAGAUAGGACCGGGCCAGAUGGUG [ddcmullin]	261	159	193	215	197
CUGACGUGCGGUAGGUUCAAGUGCUGGGAAGGAGCGCAGAUGACUGCAGGUAGGUCGCCCAGUGAUGUUGGGCUUUCCACCUACG [Quinbe]	186	180	193	214	186
UGUACCGACUCAGGAUAUGUCGUCGAAAGACGAAAUGGAGUGAUGUUCCUUAAACUGCGAAAGCAGACAGAAGGGAGUUGGUACU [FmnBS 29 C9+G77]	137	200	235	233	216
GCCGUAGAUGGAAGGAGCGUGGUUAAUGUAAGUGAUGUUUACGAGGUCAACAAUUGACCGCCACAGGUAGGUCGCCAUCUACGGC	60.4	57.4	57.2	53.1	56.4
CUGACUAAAUAGUCAGUGAUGUUGACUGGACGAGGACCGGUACGGCCGCCACUCGAGAGUGGUGUAAUAUAUGUCAUAUAGUCAA [Tryp A SS t3]	517	258	436	423	233
GUAGAUAGGCUACAUCUCUAGUCUAAAGACUAGGAUAUCAGGAAACUGAGAAGGAGUCUCAUUGGAGUGAUGUUCCAAGAAUAAU [KL-SSFMN-A16]	100	106	89.2	109	71.7
